In patent US11191841B2, “Supramolecular modification of proteins” (Massachusetts Institute of Technology, priority 2015, dated 2021):

Legend:
[1] = Insulin aggregation assay (transmittance at 540 nm); assay type: physicochemical; details: insulin 1 mg/mL, pH 7.4, 37° C., continuous agitation
Description: Insulin is well known to form fibrillar aggregates in physiologic conditions. To determine whether PEG-T-CB[7] can stabilize insulin and prevent its aggregation, assays were performed in physiologic salt concentrations at pH 7.4 and 37° C. with continuous agitation to determine the kinetics of insulin aggregation in a solution of 1 mg/mL protein (FIG. 3A). Specifically, transmittance was measured at 540 nm, a wavelength where both insulin and the PEG-T-CB[7] have negligible absorbance in order to detect the formation of aggregates, which scatter light, in solution over time. […] After the initial 100 h study, data were collected once daily to determine the duration of stability for each PEG-T-CB[7]/insulin formulation (FIG. 3B).
Recombinant human insulin was dissolved at 4 mg/ml in 2 mM HCl with 150 mM NaCl. […] The plate was immediately placed into an Infinite® M1000 plate reader (Tecan Group, Ltd.) and shaken continuously at 37° C. Absorbance readings at 540 nm were collected every 6 minutes for 100 hours, and absorbance values were subsequently converted to transmittance. […] Following the 100-hour kinetic study, the plate was maintained under continuous agitation at 37° C. and absorbance at 540 nm was monitored daily to approximate tA for the PEG-T-CB[7] conjugates.

[2] = tested on: STZ-induced diabetic mice; assay: In vivo blood glucose in STZ diabetic mice; parameters: species or system mouse; details: insulin 1 IU/kg s.c., alone or with 5 molar equivalents host; normoglycemia <200 mg/dL; 6-hour study
Description: A mouse model of insulin-deficient diabetes, prepared using streptozotocin to induce pancreatic ß-cell death, was used to evaluate the function of PEG-T-CB[7] conjugates in vivo (FIG. 4A). Following the onset of diabetes, mice were fasted overnight to ensure an average starting blood glucose level of approximately 450 mg/dL. See, e.g., Like et al. Science 1976, 193(4251): 415-417. Insulin was then administered subcutaneously at a dose of 1 IU/kg in a saline vehicle. Alternatively, an identical dose of insulin was administered along with CB [7], PEG5k-T-CB[7], PEG10k-T-CB [7], or PEG30k-T-CB [7]. All insulin formulations reduced average blood glucose to a normoglycemic level (<200 mg/dL for a mouse) following a single subcutaneous administration. Animals that received either native insulin or insulin formulated with unmodified CB[7] became hyperglycemic again approximately 2 hours following administration. […]
Male C57BL/6J, age 8 weeks, were purchased the Jackson Laboratory. […] Mice were allowed to eat ad libitum and glucose levels were monitored by peripheral tail vein bleeds using a portable glucose meter (Accu-Chek Aviva, Roche) daily until unfasted glucose levels >400 mg/dL. […] Blood glucose readings were collected every 30 minutes using a handheld glucose meter for 6 hours following insulin injection.

[3] = Glucagon stability assessment (solubility, circular dichroism); assay type: physicochemical
Description: Human recombinant glucagon (Sigma) was dissolved at 4 mg/ml in PBS containing 1 mM HCl. This was mixed 1:1 with 1 equivalent of CB[7]-PEG10k in PBS, or in PBS alone, for a final glucagon concentration of 2 mg/ml. Vials were left to age at room temperature for various times. Circular dichroism was performed on samples without dilution, as well as on freshly dissolved glucagon, by utilizing a […] cuvette.

[4] = general statement, glucagon alone; cited from earlier work
native insulin = native insulin (Homo sapiens, UniProt P01308); assay: Acridine orange competitive binding assay; details: AO 8 μM, CB[7] or PEG-T-CB[7] 6 μM, insulin 0-15 μM, in water; one-site competitive binding model; read-out: KD (binding constant toward insulin)
Description: To confirm binding of PEG-T-CB[7] to native insulin, a competitive binding assay was performed using acridine orange (AO) (FIG. 2D). In this assay, the fluorescent emission spectrum of AO is collected. The fluorescence intensity of AO increases when in complex with CB[7] relative to its emission when free in solution. As insulin is added, the CB[7]*AO complex dissociates as a result of stronger binding affinity of the B1 Phenylalanine residue to the CB[7], resulting in a reduction to the measured fluorescence intensity of AO.
Binding of PEG-T-CB[7] conjugates to insulin was assessed using the acridine orange dye displacement assay, in accordance with a previously described protocol. See, e.g., Chinai et al. Journal of the American Chemical Society 2011, 133(23): 8810-8813 Briefly, 6 μM of either unmodified CB[7] or the PEG-T-CB[7] conjugates and 8 μM acridine orange were combined with recombinant insulin (0, 1, 2, 4, 6, 8, 10, 12.5, 15 μM) in H2O. Samples were incubated overnight in light-free conditions and fluorescent spectra were collected on an Infinite® M1000 plate reader (Tecan Group, Ltd.), exciting at 485 nm and collecting the resulting fluorescent spectra from 495-650 nm. […]

[5] = reported previously (Shaikh et al. 2008); used for fitting; cited from earlier work

native insulin: Recombinant human insulin, unmodified; aged or fresh as stated
aggregation time (tA), time after which a 10% reduction in transmittance is observed ([1]; alone or with 1 equivalent host, physiologic salt): 13.6 ± 0.2 h
insulin aggregation in 100 hours of kinetic study ([1]; 100 h): Rapid aggregation
duration of normoglycemia following administration (time until hyperglycemic again) [2]: approximately 2 hours

Glucagon: Human recombinant glucagon (Sigma)
glucagon conformation by circular dichroism after aging ([3]; aged for 24 hours at room temperature, 2 mg/ml): no appreciable glucagon in solution
glucagon solubility when dissolved alone ([3]; glucagon 2 mg/ml in PBS alone): readily precipitates from solution
typical duration of aqueous solubility of glucagon [4]: less than one hour

cucurbit[7]uril [CB[7]]
Kd (native insulin): 2300 ± 200 nM
CB[7]•AO equilibrium constant Keq [5]: 200000 M⁻¹
